# Measured values published in patent US20030092613A1, “Alpha7 nicotinic receptor peptides as ligands for beta amyloid peptides” (priority 2000, published 2003).
# Target: β-amyloid1-42 (UniProt P05067)
# Test: cell-based or functional assay
binder,measurement,value
"Ac-SERFYECCKEP-NH2 (also: cyclic, bridge not given here) [cyclic peptide (Ac)…-amide]",ACh rel % Inh @ 100 µM,81%
same,Inh ACh rel IC50,316 nM
